# From patent US11319368B2, “Treatment of hepatotoxicity with IL-11 antibody” (Singapore Health Services PTE LTD., priority 2019, dated 2022)
# T1: mIL11Rα1 (Mus musculus, UniProt Q64385)
# T1 construct: purchased SinoBiological 50075-M08H
# T1 sequence (Q64385 24-432): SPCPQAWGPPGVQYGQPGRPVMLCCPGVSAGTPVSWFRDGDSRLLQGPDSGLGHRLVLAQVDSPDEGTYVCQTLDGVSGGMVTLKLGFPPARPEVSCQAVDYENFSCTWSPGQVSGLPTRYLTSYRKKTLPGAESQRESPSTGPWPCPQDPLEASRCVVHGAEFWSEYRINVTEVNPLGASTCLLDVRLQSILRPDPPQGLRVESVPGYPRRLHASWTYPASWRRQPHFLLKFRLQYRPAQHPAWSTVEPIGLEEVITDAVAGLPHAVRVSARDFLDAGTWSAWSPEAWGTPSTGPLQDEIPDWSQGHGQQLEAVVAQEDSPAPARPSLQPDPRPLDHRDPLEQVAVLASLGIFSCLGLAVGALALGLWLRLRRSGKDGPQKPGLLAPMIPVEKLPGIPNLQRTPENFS
# Experiments:
# [1] = system: primary human hepatocytes; assay: IL-11 treatment of primary human hepatocytes: ALT in supernatant, actin stress fibres; format: cell-based; details: IL-11 0.019-10 ng/ml, 24 h
# Description: IL-11 mediated hepatocyte cell death was measured by determining the levels of alanine transaminase (ALT) in hepatocyte supernatant after treatment with a range of IL-11 doses (0.019-10 ng/ml). ALT levels were measured using ALT Activity Assay Kit (ab105134, Abcam) according to the manufacturer's protocol. Concurrent number of stress fibres 24 h after IL-11 stimulation was detected by rhodamine-phalloidin staining.
# [2] = system: human hepatocytes; assay: rhIL11 versus rmIL11 on human hepatocytes; format: cell-based; details: 10 ng ml^-1
# [3] = molecular target: T1, mIL11Rα1; assay: Competition ELISA, biotinylated rmIL11 binding to mIL11Rα1; details: two-fold dilutions from 5 μg ml^-1
# Description: Mouse IL11Rα (1 μg ml^−1 in PBS) was coated on a 96-well plate (overnight at 4° C.) and then blocked with blocking buffer (1% BSA in PBS containing 0.05% Tween20). Biotinylated mouse Il11 was prepared using Lightning-Link Rapid Biotin type A kit (Expedeon) according to the manufacturer's instructions. RhIL11 or rmIl11 was two-fold serially diluted in blocking buffer (starting at 5 μg ml^−1) and mixed with 0.01 μg ml^−1 biotinylated mouse IL11. The mixture of biotinylated mouse IL11 and either rhIL11 or rmIL11 was added into the coated plate and incubated for 1 h at RT. Color development was performed by adding Streptavidin-HRP (1:1000 in blocking buffer) and TMB chromogen solution (002023, ThermoFisher Scientific).
# [4] = system: mouse hepatocytes; format: cell-based; details: 24 h
# Excerpt: Mouse hepatocytes (ABC-TC3928, AcceGen Biotech) were maintained in mouse hepatocyte medium (ABC-TM3928, AcceGen Biotech) supplemented with 1% Penicillin-streptomycin.
# [5] = system: liver; details: single subcutaneous injection 500 μg kg^-1
# Description: (A) Effect of recombinant human IL11 (rhIL11, 10 ng ml^−1) or recombinant mouse IL11 (rmIL11, 10 ng ml^−1) on ERK, JNK and CASP3 activation status in mouse hepatocytes. (B) ALT levels in mouse hepatocyte supernatant following stimulation by rmIL11 (10 ng ml^−1) or by increasing doses of rhIL11 (1, 5, 10, 15 and 20 ng ml^−1). (C) Schematic of mice receiving a single subcutaneous injection of either saline, rhIL11, or rmIl11 (500 μg kg^−1). (D) Western blot analysis of hepatic p-ERK, p-JNK, and Cl. […] Dose-dependent inhibition effect of rhIL11 on rmIL11-induced (K) ALT secretion and (L) CASP3 activation by mouse hepatocytes. (A, B, K, L) 24 h. (B, K) Data are shown as mean±SD; (E, G) Data are shown as box-and-whisker with median (middle line), 25th-75th percentiles (box), and minimum-maximum values (whiskers). (B, K) Two-tailed, Tukey-corrected Student's t-test; (E) two-tailed Student's t-test; (G) two-tailed Dunnett's test.
# The levels of alanine transaminase (ALT) or aspartate aminotransferase (AST) in mouse serum and hepatocyte supernatant were measured using ALT Activity (ab105134, Abcam) or AST (ab105135, Abcam) Assay Kits. […] All colorimetric assays were performed according to the manufacturer's protocol.
# Western blots were carried out from hepatocyte and liver tissue lysates. […] Protein concentrations were determined by Bradford assay (Bio-Rad). […]
# [6] = system: infection colitis; details: 5 μg/kg, IP; cited from earlier work
# [7] = system: small intestinal mucosa; details: 250 μg/kg; cited from earlier work
# [8] = system: Borrelia burgdorferi-infected mice; details: 0.1-2 μg/mouse/day, 5 days/week for 3 weeks; cited from earlier work
# [9] = system: LPS-induced lung injury; details: 200 mg/kg, IP; cited from earlier work
molecule,measurement,setting,value
"rhIL11: Recombinant human IL11 (UniProtKB:P20809, Genscript) (protein) PGPPPGPPRVSPDPRAELDSTVLLTRSLLADTRQLAAQLRDKFPADGDHNLDSLPTLAMSAGALGALQLPGVLTRLRADLLSYLRHVQWLRRAGGSSLKTLEPELGTLQARLDRLLRRLQLLMSRLALPQPPPDPPAPPLAPPSSAWGGIRAAHAILGGLHLTLDWAVRGLLLLKTRL",actin stress fibres in hepatocytes,[1],progressively stimulated an increase in actin stress fibres
same,alanine aminotransferase (ALT) in hepatocyte supernatant (hepatocyte cell death),[1],progressive increase in alanine aminotransferase (ALT)
same,ERK and JNK signaling and hepatocyte death,[2],stimulated ERK and JNK signaling and hepatocyte death
same,competition with rmIL11 for binding to mIL11Rα1,[3],competed with rmIL11 for binding to mIL11Rα1
same,GSH levels in rmIL11 stimulated mouse cells,[4],"clear, dose-dependent effects of rhIL11 in restoring GSH levels"
same,hepatic ERK and JNK phosphorylation,[5],no effect on ERK or JNK phosphorylation
same,infection colitis,[6],IP) ameliorates infection colitis and is cytoprotective in TLR2-
same,recovery from chemotherapy and radiation-induced mucosal damage,[7],Administration of rhIL11 (250 μg/kg) promotes recovery from
same,arthritis and carditis,[8],"weeks) reduces arthritis, but not carditis, in Borrelia burgdorferi-"
same,LPS-induced lung injury and lethality,[9],inflammatory activity that protects against LPS-induced lung
